The values that follow come from patent publication US20130136718A1.

Read-outs that look alike come from different tables or passages of the source.

Assay [1] deals with CD20 (human) (UniProt P11836). The assay can be described thus: cell-based or functional assay.
Assay [2] concerns the target CD20 (human) (UniProt P11836). The assay can be described thus: cell-based or functional assay. This is another data set of the same source.

CD20 (human), sequence (P11836 whole entry): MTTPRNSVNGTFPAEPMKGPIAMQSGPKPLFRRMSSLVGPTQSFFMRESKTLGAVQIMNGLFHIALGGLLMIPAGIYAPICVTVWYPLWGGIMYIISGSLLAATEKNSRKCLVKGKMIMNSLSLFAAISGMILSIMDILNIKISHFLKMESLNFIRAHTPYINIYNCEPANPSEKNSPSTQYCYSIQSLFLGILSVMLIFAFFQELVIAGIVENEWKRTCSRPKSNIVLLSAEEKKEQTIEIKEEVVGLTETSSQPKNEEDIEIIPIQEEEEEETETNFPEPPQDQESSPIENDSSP

In the case of veltuzumab (antibody), the in vitro proliferation of Jeko-1 cells, EC50 in assay [1] came out at 1 nM; in assay [2] it was 1.5 nM.
In assay [1], 20-2b (from UniProt P01563 24-188) showed an in vitro proliferation of Daudi cells, potency against non-targeting MAb-IFNα constructs of 30 fold; an in vitro proliferation of Jeko-1 cells, low-concentration response, EC50 of 0.00097 nM; an in vitro proliferation of Jeko-1 cells, potency against 734-2b of 25 fold. Moreover, in assay [2], the in vitro proliferation of Jeko-1 cells, high-concentration response, EC50 is 0.85 nM.
